Results taken from the supplement of paper PMC6757056.
± gives the standard deviation of the averaged measurements.

B1: library; a variant is named by its letters at N, in order (parent)
chain: GCUGUCACCGGAAUACCAGCAUCGUCUUGAUGCCCUUGGAAGUCCGGUCUGAUGAGUCCNNNNNGGACGAAACAGC

What was measured:
theophylline [1] = variants of: B1; assay: FACS-Seq fitted mean relative fluorescence mCherry/BFP without ligand (log10 relative fluorescence); higher = higher reporter protein expression; settings: HEK293T, ligand present: no
Procedure: (§1)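 Hammerhead (sTRSV) ribozyme switch libraries with a ligand aptamer grafted on stem I and a randomized N4-6 loop II, cloned into the 3' UTR of mCherry and transiently transfected into HEK293T cells; RNA-Seq 72 h post transfection with ligand added 1 h before transfection; RNA read count / plasmid DNA read count normalized to the non-cleaving sTRSVctl (x100), log10; sequences with >100 DNA reads. FACS-Seq: lentiviral library sorted into 6 bins after 48 h ligand, log-normal fit mean of mCherry/BFP scaled to controls. Printed sequences are partial switch sequences.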

theophylline [2] = variants of: B1; assay: normalized RNA/DNA level with ligand (relative to sTRSVctl = 100) (log10 (% of sTRSVctl)); higher = less ribozyme self-cleavage, higher mRNA level; settings: ligand concentration (+) RNA-Seq: 5 mM, HEK293T, reporter: mCherry (pCS4076), ligand present: yes
Procedure: as §1

theophylline [3] = variants of: B1; assay: normalized RNA/DNA level without ligand (relative to sTRSVctl = 100) (log10 (% of sTRSVctl)); higher = less ribozyme self-cleavage, higher mRNA level; settings: HEK293T, reporter: mCherry (pCS4076), ligand present: no
Procedure: as §1

theophylline [4] = variants of: B1; assay: FACS-Seq fitted mean relative fluorescence mCherry/BFP with ligand (log10 relative fluorescence); ligand concentration (+) FACS-Seq: 1 mM; higher = higher reporter protein expression; settings: HEK293T, ligand present: yes
Procedure: as §1

Variant	FACS-Seq fitted mean (log10) (theophylline [1])	normalized RNA/DNA level with ligand (log10) (theophylline [2])	normalized RNA/DNA level without ligand (log10) (theophylline [3])	FACS-Seq fitted mean (log10) (theophylline [4])
UAGAA	-0.0982 ± 0.13	1.91 ± 0.11	1.43 ± 0.016	0.448 ± 0.028
UAGAU	0.687 ± 0.045	2.02 ± 0.036	1.8244 ± 0.0014	0.828 ± 0.09
AAGAA	0.0676 ± 0.046	1.94 ± 0.04	1.36 ± 0.025	0.545 ± 0.015
AAGAC	0.968 ± 0.16	1.91 ± 0.06	1.86 ± 0.14	0.922 ± 0.12
AAGAU	0.919 ± 0.085	1.97 ± 0.06	1.69 ± 0.052	1.06 ± 0.11
AAGAG	0.563 ± 0.11	1.97 ± 0.099	1.67 ± 0.089	0.728 ± 0.02
CAACA	0.729 ± 0.046	1.98 ± 0.018	1.53 ± 0.0043	0.886 ± 0.058
CAACU	0.64 ± 0.013	1.98 ± 0.048	1.73 ± 0.17	0.815 ± 0.097
CAACC	1.06 ± 0.065	1.91 ± 0.059	1.994 ± 0.0033	1.02 ± 0.03
UACUG	0.382 ± 0.044	1.9807 ± 0.00035	1.94 ± 0.04	0.421 ± 0.12
UACUA	0.959 ± 0.069	1.97 ± 0.11	1.67 ± 0.042	1.05 ± 0.071
UACUU	0.59 ± 0.079	2.01 ± 0.023	1.9 ± 0.041	0.754 ± 0.026
UACUC	0.1 ± 0.14	2.1 ± 0.021	2.02 ± 0.039	0.351 ± 0.022
AAGGC	0.518 ± 0.013	1.93 ± 0.046	1.89 ± 0.079	0.476 ± 0.023
AAGGG	0.3836 ± 0.0021	1.85 ± 0.028	1.75 ± 0.037	0.381 ± 0.037
AAGGA	0.338 ± 0.022	2 ± 0.025	1.43 ± 0.099	0.8561 ± 0.0071
GACAG	0.769 ± 0.29	1.952 ± 0.0094	1.77 ± 0.055	0.612 ± 0.13
GACAA	0.619 ± 0.048	1.938 ± 0.019	1.56 ± 0.022	0.731 ± 0.017
GACAU	0.478 ± 0.063	2.04 ± 0.032	1.859 ± 0.0069	0.576 ± 0.07
GAGAU	0.787 ± 0.038	1.97 ± 0.038	1.73 ± 0.074	0.958 ± 0.062
GAGAA	0.48 ± 0.017	1.91 ± 0.15	1.41 ± 0.11	0.7667 ± 0.00081
AAAUG	0.571 ± 0.038	2.03 ± 0.022	1.75 ± 0.054	0.607 ± 0.029
AAAUU	0.984 ± 0.045	2.02 ± 0.1	1.82 ± 0.082	1.05 ± 0.06
AAAUA	0.6481 ± 0.0057	1.99 ± 0.038	1.62 ± 0.16	0.806 ± 0.062

Variant	FACS-Seq fitted mean (log10) (theophylline [1])	normalized RNA/DNA level with ligand (log10) (theophylline [2])	normalized RNA/DNA level without ligand (log10) (theophylline [3])	FACS-Seq fitted mean (log10) (theophylline [4])
AAAUC	0.4981 ± 0.0025	1.89 ± 0.034	1.9 ± 0.099	0.511 ± 0.021
AAAGU	0.9033 ± 0.0058	1.923 ± 0.018	1.58 ± 0.018	1.1 ± 0.046
AAAGC	1.03 ± 0.054	2.03 ± 0.041	1.79 ± 0.043	1.04 ± 0.14
AAAGG	0.199 ± 0.022	1.976 ± 0.019	1.71 ± 0.033	0.426 ± 0.04
AAAGA	-0.192 ± 0.043	1.92 ± 0.08	1.32 ± 0.06	0.259 ± 0.0043
AAACA	-0.0142 ± 0.16	1.9113 ± 0.00046	1.72 ± 0.14	0.172 ± 0.072
AAACU	0.552 ± 0.079	1.97 ± 0.093	1.79 ± 0.033	0.604 ± 0.0015
AAACG	0.558 ± 0.061	2 ± 0.03	1.84 ± 0.12	0.652 ± 0.062
AAACC	0.153 ± 0.14	1.96 ± 0.097	1.91 ± 0.14	0.18 ± 0.0037
GAAAU	0.796 ± 0.0017	2.01 ± 0.038	1.71 ± 0.059	1.04 ± 0.097
GAAAA	0.381 ± 0.0065	1.96 ± 0.033	1.3 ± 0.14	0.809 ± 0.014
GAAAG	1.046 ± 0.0068	1.96 ± 0.022	1.66 ± 0.044	1.08 ± 0.14
GAAAC	0.594 ± 0.018	1.97 ± 0.025	1.77 ± 0.072	0.621 ± 0.075
UACGC	0.81 ± 0.14	2.01 ± 0.038	1.98 ± 0.17	0.916 ± 0.039
UACGU	0.851 ± 0.024	2.022 ± 0.012	1.92 ± 0.014	0.816 ± 0.023
UACGA	0.287 ± 0.021	2.07 ± 0.025	1.72 ± 0.097	0.324 ± 0.024
AAGCC	0.748 ± 0.02	2.03 ± 0.089	2.01 ± 0.071	0.7196 ± 0.0051
AAGCU	0.983 ± 0.1	2.05 ± 0.094	1.78 ± 0.077	1.11 ± 0.11
AAGCG	0.683 ± 0.068	2 ± 0.075	1.96 ± 0.067	0.7793 ± 0.0014
AAGCA	0.538 ± 0.016	2.03 ± 0.051	1.8 ± 0.033	0.682 ± 0.023
GAGGG	0.948 ± 0.031	1.91 ± 0.22	1.67 ± 0.03	1.07 ± 0.07
UAACU	0.803 ± 0.036	2 ± 0.14	1.89 ± 0.02	0.716 ± 0.1
UAACG	0.784 ± 0.07	1.99 ± 0.04	1.87 ± 0.18	0.711 ± 0.018
UAACA	0.606 ± 0.025	1.99 ± 0.066	1.55 ± 0.053	0.813 ± 0.024

Variant	FACS-Seq fitted mean (log10) (theophylline [1])	normalized RNA/DNA level with ligand (log10) (theophylline [2])	normalized RNA/DNA level without ligand (log10) (theophylline [3])	FACS-Seq fitted mean (log10) (theophylline [4])
UAACC	0.589 ± 0.058	1.92 ± 0.025	1.92 ± 0.04	0.702 ± 0.061
UACCU	-0.0361 ± 0.0029	1.988 ± 0.00013	1.99 ± 0.099	0.0166 ± 0.074
UACCA	0.405 ± 0.01	1.9 ± 0.086	1.82 ± 0.098	0.436 ± 0.11
UACCG	1.2 ± 0.1	2.01 ± 0.067	2 ± 0.032	1.09 ± 0.086
UACCC	0.622 ± 0.13	2.02 ± 0.026	2.04 ± 0.048	0.599 ± 0.045
CACAU	0.589 ± 0.032	1.964 ± 0.0051	1.68 ± 0.099	0.693 ± 0.025
CACAA	0.062 ± 0.032	2.014 ± 0.0084	1.56 ± 0.11	0.3195 ± 0.0011
CACAC	0.945 ± 0.11	2.02 ± 0.044	1.88 ± 0.11	1.03 ± 0.2
AACGA	0.235 ± 0.038	1.96 ± 0.1	1.53 ± 0.17	0.536 ± 0.026
AACGC	0.98544 ± 0.00052	2.135 ± 0.0047	1.94 ± 0.072	0.922 ± 0.023
AACGU	0.773 ± 0.075	1.965 ± 0.017	1.793 ± 0.011	0.854 ± 0.2
AACGG	0.852 ± 0.14	2 ± 0.049	1.8 ± 0.057	0.998 ± 0.083
UACAA	0.427 ± 0.022	1.972 ± 0.012	1.6 ± 0.032	0.553 ± 0.018
UACAC	0.83 ± 0.034	1.98 ± 0.02	1.99 ± 0.025	0.695 ± 0.097
UACAG	1.02 ± 0.041	1.96 ± 0.051	1.908 ± 0.018	0.918 ± 0.052
UACAU	0.684 ± 0.015	2.03 ± 0.17	1.91 ± 0.14	0.722 ± 0.0088
CACGC	0.917 ± 0.026	2.04 ± 0.065	1.996 ± 0.013	1.04 ± 0.043
CACGA	0.805 ± 0.037	1.998 ± 0.0074	1.76 ± 0.036	0.917 ± 0.012
GACCU	1.03 ± 0.1	1.99 ± 0.064	1.95 ± 0.06	1.03 ± 0.15
GACGG	0.642 ± 0.057	1.93 ± 0.045	1.71 ± 0.11	0.887 ± 0.096
GACGU	0.7517 ± 0.0053	1.93 ± 0.027	1.64 ± 0.15	1.03 ± 0.022
CAGCC	0.864 ± 0.054	2 ± 0.035	1.97 ± 0.025	0.846 ± 0.13
CAGCU	0.425 ± 0.0073	2.017 ± 0.019	1.75 ± 0.059	0.527 ± 0.0083
CAGCA	0.319 ± 0.011	1.88 ± 0.099	1.52 ± 0.1	0.461 ± 0.062
